Measurements published in US20230039976A1.

Assays:
[1] = molecular target: programmed cell death protein 1 (PD-1) on tumor infiltrating lymphocytes (human) (UniProt Q15116); experiment: flow cytometry of ovarian tumor digest OV8074; EH12.2H7 staining; percent of CD3+ cells stained
[2] = molecular target: programmed cell death protein 1 (PD-1) on tumor infiltrating lymphocytes (human) (UniProt Q15116); experiment: flow cytometry of melanoma tumor digest M1156; EH12.2H7 staining; percent of CD3+ cells stained
[3] = molecular target: programmed cell death protein 1 (PD-1) on tumor infiltrating lymphocytes (human) (UniProt Q15116); experiment: flow cytometry of head and neck tumor digest H3046; EH12.2H7 staining; percent of CD3+ cells stained

Sequence of UniProt Q15116 (Q15116 25-288): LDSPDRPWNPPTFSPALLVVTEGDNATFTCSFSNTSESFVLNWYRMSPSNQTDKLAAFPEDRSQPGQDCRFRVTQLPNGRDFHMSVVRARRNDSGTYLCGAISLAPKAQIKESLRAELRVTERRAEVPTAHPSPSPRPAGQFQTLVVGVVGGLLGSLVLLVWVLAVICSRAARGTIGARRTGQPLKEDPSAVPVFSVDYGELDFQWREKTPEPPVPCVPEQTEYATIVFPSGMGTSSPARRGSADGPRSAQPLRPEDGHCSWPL

B1: anti-PD-1 antibody clone EH12.2H7 (BioLegend, Cat #329906) (antibody, from another filing, V domains shown)
VH: QVQLQQSGAELAKPGASVQMSCKASGYSFTSSWIHWVKQRPGQGLEWIGYIYPSTGFTEYNQKFKDKATLTADKSSSTAYMQLSSLTSEDSAVYYCARWRDSSGYHAMDYWGQGTSVTVSS
VL: DIVLTQSPASLTVSLGQRATISCRASQSVSTSGYSYMHWYQQKPGQPPKLLIKFGSNLESGIPARFSGSGSGTDFTLNIHPVEEEDTATYYCQHSWEIPYTFGGGTKLEIK
For B1, which Pre-sort % PD-1+ (of CD3+) [1] is on record?
The Pre-sort % PD-1+ (of CD3+) was 70%.

What about the Pre-sort % PD-1+ (of CD3+) [2] of the same binder?
Its Pre-sort % PD-1+ (of CD3+) is 93%.

What about the Pre-sort % PD-1+ (of CD3+) [3] of the same binder?
The Pre-sort % PD-1+ (of CD3+) was 13%.
